Results reported in patent US20040229274A1 (Johns Hopkins, published 2004).
Each block holds one binder with its values, some of them ahead of it.

Assays:
[1] = target: T1, myc-tagged mGluR5 C-terminus (195 aa) expressed in HEK-293 cells (UniProt P31424 1009-1203); experiment: GST-Homer deletion constructs, pull-down of myc-tagged mGluR5 C-terminus, immunoblot for myc
T1 construct: it is put first here; not shown: myc tag

[2] = target: truncated mGluR5 (C-terminal 4 amino acids deleted) expressed in HEK-293 cells (UniProt P31424); experiment: bead-linked GST-Homer pull-down from HEK-293 cell extracts, immunoblot
[3] = target: mGluR2 transiently expressed in HEK-293 cells (UniProt P31421 19-872); experiment: bead-linked GST-Homer pull-down from extracts of transfected HEK-293 cells, immunoblot
mGluR2 transiently expressed in HEK-293 cells, sequence (P31421 19-872 limits assumed): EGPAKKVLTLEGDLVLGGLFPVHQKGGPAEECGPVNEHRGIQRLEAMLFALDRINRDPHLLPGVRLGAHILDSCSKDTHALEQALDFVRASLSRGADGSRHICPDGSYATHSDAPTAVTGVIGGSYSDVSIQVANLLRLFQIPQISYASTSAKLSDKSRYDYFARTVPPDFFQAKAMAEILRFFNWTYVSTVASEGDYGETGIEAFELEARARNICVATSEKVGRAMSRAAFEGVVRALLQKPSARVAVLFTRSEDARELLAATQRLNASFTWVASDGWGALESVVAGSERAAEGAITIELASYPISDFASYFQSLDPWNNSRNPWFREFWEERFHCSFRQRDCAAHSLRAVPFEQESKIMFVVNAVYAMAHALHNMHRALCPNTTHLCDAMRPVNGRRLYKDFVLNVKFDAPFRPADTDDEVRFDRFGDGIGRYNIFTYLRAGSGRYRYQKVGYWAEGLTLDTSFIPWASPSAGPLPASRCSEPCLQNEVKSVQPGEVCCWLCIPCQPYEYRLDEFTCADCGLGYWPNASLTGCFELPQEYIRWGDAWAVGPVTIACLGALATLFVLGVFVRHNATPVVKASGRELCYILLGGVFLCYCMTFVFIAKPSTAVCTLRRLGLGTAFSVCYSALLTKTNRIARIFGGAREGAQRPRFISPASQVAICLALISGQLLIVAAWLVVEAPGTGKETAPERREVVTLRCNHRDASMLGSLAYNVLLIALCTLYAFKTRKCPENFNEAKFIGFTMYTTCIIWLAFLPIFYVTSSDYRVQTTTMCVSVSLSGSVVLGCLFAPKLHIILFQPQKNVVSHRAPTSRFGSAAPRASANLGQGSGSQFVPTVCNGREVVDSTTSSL
Text: (§1) To measure the binding interaction, mGluR5 and mGluR1a were expressed in HEK-293 cells. Cell extracts were mixed with bead-linked GST-Homer and were then eluted with SDS loading buffer. When the C-terminal 4 amino acids of mGluR5 were deleted, binding of the mGluR5 to Homer was reduced by greater than 70% (FIG. 10D, lanes 3 and 4). […] Neither mGluR2 nor mGluR4 bind Homer protein (FIGS. 10B, 10C).
(§2) For experiments examining specificity of Homer binding to metabotropic glutamate receptors, HEK-293 cells were transiently transfected with mGluR1a, mGluR2, mGluR4 or mGluR5 expression constructs, scraped into PBS+1% Triton X100, sonicated 2×10 seconds, centrifuged at 15,000 g for 10 minutes at 4° C., and pre-cleared. Lysate from half of a 10 cm plate was incubated with 50 μl of beads linked to 250 ng of protein and washed as above. Samples were analyzed by western blot analysis using the appropriate polyclonal mGluR antibody. Deletion constructs of Homer were prepared by PCR and cloned as fusion constructs with GST in pGEX (Pharmacia, Piscataway, N.J.).

[4] = target: mGluR4 transiently expressed in HEK-293 cells (UniProt P31423 33-912); experiment: as above
mGluR4 transiently expressed in HEK-293 cells, sequence (P31423 33-912 limits assumed): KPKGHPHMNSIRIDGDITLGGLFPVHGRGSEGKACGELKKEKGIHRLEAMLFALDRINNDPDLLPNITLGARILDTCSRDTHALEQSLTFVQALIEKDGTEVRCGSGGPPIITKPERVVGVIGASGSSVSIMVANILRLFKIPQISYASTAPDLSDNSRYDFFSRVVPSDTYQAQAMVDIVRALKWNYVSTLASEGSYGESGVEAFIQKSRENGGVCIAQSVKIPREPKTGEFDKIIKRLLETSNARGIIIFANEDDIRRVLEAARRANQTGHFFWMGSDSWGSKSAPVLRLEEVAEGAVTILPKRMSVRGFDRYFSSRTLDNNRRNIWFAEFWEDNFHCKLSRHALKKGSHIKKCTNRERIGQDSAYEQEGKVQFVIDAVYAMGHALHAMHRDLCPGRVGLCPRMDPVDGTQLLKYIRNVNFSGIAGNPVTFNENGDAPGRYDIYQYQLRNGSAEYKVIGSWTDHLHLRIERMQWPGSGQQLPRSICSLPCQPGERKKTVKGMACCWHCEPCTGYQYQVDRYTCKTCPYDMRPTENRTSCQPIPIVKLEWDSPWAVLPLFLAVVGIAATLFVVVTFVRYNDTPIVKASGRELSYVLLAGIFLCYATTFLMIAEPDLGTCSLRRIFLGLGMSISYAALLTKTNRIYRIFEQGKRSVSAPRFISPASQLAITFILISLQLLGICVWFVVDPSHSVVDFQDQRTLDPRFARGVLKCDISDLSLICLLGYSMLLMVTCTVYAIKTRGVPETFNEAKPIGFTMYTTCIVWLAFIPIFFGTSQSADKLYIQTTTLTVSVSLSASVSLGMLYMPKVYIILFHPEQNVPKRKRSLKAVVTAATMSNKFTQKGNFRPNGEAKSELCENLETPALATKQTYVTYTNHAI
Text: as §1, §2

[5] = target: T2, C-terminal 195 amino acids of mGluR5 encoded by an interacting cDNA of the rat hippocampus library in pPC86 (rat, UniProt P31424 1009-1203); experiment: yeast GAL4 two-hybrid screen, selection without leucine, tryptophan and histidine, confirmed by β-galactosidase assay
T2 construct: not shown: GAL4 domain supplied by vector pPC86
T2 sequence (P31424 1009-1203): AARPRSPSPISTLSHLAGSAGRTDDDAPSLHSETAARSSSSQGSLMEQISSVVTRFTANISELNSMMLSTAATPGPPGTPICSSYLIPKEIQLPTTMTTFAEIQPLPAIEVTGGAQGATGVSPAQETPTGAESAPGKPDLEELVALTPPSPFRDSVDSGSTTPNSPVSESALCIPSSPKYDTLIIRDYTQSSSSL
Procedure: In experiments carried out in support of the present invention and described in Example 5 herein, the yeast GAL4 two-hybrid system was used to identify binding partners of the rat Homer protein in a rat brain cDNA library (Chevray and Nathans, 1992). A PCR product of the full-length Homer ORF with flanking SmaI sites was subcloned into the yeast expression vector pPC97. A random primed cDNA library was prepared from seizure stimulated adult rat hippocampus and cloned into the yeast expression vector pPC86. The library contains 2×10⁶ independent cDNAs. A total of 1.5×10⁶ clones were screened. Interacting proteins were identified by selection on plates lacking leucine, tryptophan, and histidine, restreaked and confirmed using a β-galactosidase assay.
The full-length Homer ORF with flanking SmaI sites was subdloned into the yeast expression vector pPC97. A random primed cDNA library was prepared from seizure stimulated adult rat hippocampus and cloned into the yeast expression vector pPC86. The library contains 6×10⁶ independent cDNAs and a total of 1.5×10⁶ were screened. Interacting proteins were identified by colony selection on plates lacking leucine, tryptophan, and histidine and confirmed using a β-galactosidase assay (Ausubel, et al., 1992). […]

T1 sequence (P31424 1009-1203 limits assumed): as the sequence (P31424 1009-1203) above

binding result [1]: no binding
B1: GST-Homer deletion construct, Homer fragment 109-186 (N-terminal 108 amino acids deleted) (other, not shown: a dimerising Fc or GST; large carriers; small tags and cut ends)
chain: AARLAKEKSQEKMELTSTPSQESAGGDLQSPLTPESINGTDDERTPDVTQNSEPRAEPAQNALPFSHRYTFNSAIMIK
notes: GST put first as usual for pGEX

reduction of binding against full length mGluR5 [2]: > 70% | binding result [3]: no binding | binding result [4]: no binding
B2: GST-Homer fusion protein (full length rat Homer, 1-186, fused to glutathione-S-transferase) (other)
chain: MGEQPIFSTRAHVFQIDPNTKKNWVPTSKHAVTVSYFYDSTRNVYRIISLDGSKAIINSTITPNMTFTKTSQKFGQWADSRANTVYGLGFSSEHHLSKFAEKFQEFKEAARLAKEKSQEKMELTSTPSQESAGGDLQSPLTPESINGTDDERTPDVTQNSEPRAEPAQNALPFSHRYTFNSAIMIK
notes: Bacterially expressed from pGEX; GST is put first as usual for pGEX; also called Homer GST fusion protein; Homer-GST fusion protein; not shown: glutathione-S-transferase (GST) encoded by the bacterial vector pGEX (Pharmacia)

binding result [5]: binds
B3: full-length Homer ORF in yeast expression vector pPC97 (GAL4 two-hybrid fusion) (other)
chain: MGEQPIFSTRAHVFQIDPNTKKNWVPTSKHAVTVSYFYDSTRNVYRIISLDGSKAIINSTITPNMTFTKTSQKFGQWADSRANTVYGLGFSSEHHLSKFAEKFQEFKEAARLAKEKSQEKMELTSTPSQESAGGDLQSPLTPESINGTDDERTPDVTQNSEPRAEPAQNALPFSHRYTFNSAIMIK
notes: also called Homer (two-hybrid bait); not shown: GAL4 domain supplied by vector pPC97
